In paper PMC3317930, “A Human PrM Antibody That Recognizes a Novel Cryptic Epitope on Dengue E Glycoprotein” (PLoS ONE, 2012):

How the values were obtained:
[1] = molecular target: Dengue 1 (DENV1) strain Hawaii, whole virus (Dengue virus 1, strain Hawaii, UniProt B5AGU1, strain); assay: ELISA; details: both partners purified
[2] = molecular target: Dengue 4 (DENV4) strain H241, whole virus (Dengue virus 4, strain H241, UniProt Q58HT7, strain); assay: ELISA; details: both partners purified
[3] = molecular target: Dengue 3 (DENV3) strain H87, whole virus (Dengue virus 3, strain H87, UniProt P27915, strain); assay: ELISA; details: both partners purified
[4] = molecular target: Dengue 2 (DENV2), whole virus (Dengue virus 2, strain New Guinea C (or …, UniProt P14340, strain)); assay: ELISA; details: both partners purified
[5] = molecular target: T1, envelope (E) protein of DENV3 (Dengue virus 3, strain H87, UniProt P27915); assay: Western blot; details: one partner purified
T1 construct: also called E glycoprotein; source: DENV3-infected Vero cells, in lysate

prM protein of DENV3 = prM protein of DENV3 (Dengue virus 3, strain H87, UniProt P27915); assay: Western blot; details: one partner purified
[6] = molecular target: T2, envelope (E) protein of DENV4 (Dengue virus 4, strain H241, UniProt Q58HT7); assay: Western blot; details: one partner purified
T2 construct: also called E glycoprotein; source: DENV4-infected Vero cells, in lysate

[7] = molecular target: T3, prM protein of the non-mutated prM-E construct (pCMV-prM-E) (Dengue virus 2 strain New Guinea C, UniProt P14340); assay: Western blot; details: one partner purified
T3 construct: also called prM of pCMV-prM-E; source: HEK293-T cells, transfected, in lysate

B1: D29 Fab-IgG (antibody, V domains shown)
VH: QMQLVQSGGGVVQPGRSLRLSCAASGFTFSSYAMHWVRQAPGKGLEWVAGTSYDGSNKYYADSVKGRFTISGDNSKNTVYLQMNSLRAEDTAVYYCARAHSSGWYDAFDIWGQGTTVTVSS
VL: SYVLTQPPSVSVSPGQAASITCSGDKLGDKYAWWYQQKPGQSPVMVIHQDDKRPSGIPERFSGSNSGNTATLTITGTQAMDEADYYCQAWDRTTVVFGGGTKLTVL
notes: source: HEK 293 T cells (Fab from a non-immunized human Fab phage library, converted into human IgG format)
B1 gave a Kd [1] of 90.5 pM, a Kd [2] of 108 pM and a Kd [3] of 114 pM. The Kd [4] was 86.9 pM, the binding result [5] was “binds” and the binding result (prM protein of DENV3) was “binds”. B1: binds [6]; binds [7].
